Tests used:
Format in all cases: in vivo
[1] = system: Actinobacillus pleuropneumoniae (App); assay: App challenge of pigs, therapeutic IL-1ra at low and high doses or Excenel (Example 7); settings: for feed consumed: FIG. 52
Experimental: Male pigs with a mean starting weight of 34.6 kg, were allocated to 4 treatment groups of 9 pigs each. Treatments were saline, IL-1ra at 2 μg per kg, IL-1ra at 10 μg per kg and Excenel, the current clinical treatment for App infection. Pigs were housed in pens of 3 pigs, with 3 replicates of each. Pigs were provided with pelleted feed and water ad libitum. The starting weights of each treatment group and each pen were equal prior to the start of the trial.
Pigs were anaesthetised and infected intratracheally with 7.5×10^5 pfu on day 0. Recombinant IL-1ra and saline were administered as 2ml doses, given subcutaneously behind the ear. Excenel was administered to pigs according to the manufacturer's instructions. Pigs were treated with IL-1ra, saline or Excenel at 24 h, 48 h and one week after challenge with App.
Blood was sampled from pigs by venipuncture at 0 h, 24 h, 48 h, 1 week and 2 weeks after infection. Blood was assayed for immunological parameters as previously described. Pigs were weighed the day prior to challenge, and days 6 and 13 after challenge.

haemorrhagic E. coli = assay: Haemorrhagic E. coli challenge of weaner pigs, prophylactic treatment (Example 3); settings: for reduction of E. coli culture score at post-mortem compared to saline: FIG. 19
Experimental: Male weaner pigs, with a mean weight of 5.4 kg were allocated to groups of 8, with the mean weight being equalised between groups. Pigs were housed in group pens containing a replicate from each treatment group. Pigs were provided with pelleted feed and water ad libitum.
Pigs were treated with recombinant saline, IL-1ra or the antibiotic, Apralan, and challenged with E. coli according to the schedule outlined in Table 3. Saline, or 200 μg of IL-1ra were delivered intramuscularly in 1 ml doses. Apralan was delivered orally according to manufacturer's instructions at a dose of 12 mg/kg. E. coli challenges were delivered orally in an 8 ml dose containing 10^8 cfu/ml. Blood was sampled from pigs by venipuncture at −2 days, day 0, and +6 days from initial challenge with E. coli as outlined in Table 3. Blood was assayed for immunological parameters including white blood cell number, differential cell counts, lymphocyte subset enumeration, IgG levels and cytokine production. Pigs were weighed at day −2 and at the end of the trial on day 6.
Faecal samples were taken from each pig daily for 5 days from day 2 to day 6 after challenge; these samples were cultured on sheep blood agar to quantify E. coli load. Growth on sheep blood agar was scored from 0 to 5 (where 0 was no growth, 1 signified growth in the primary inoculum, 2 signified growth in the first streak, 3 signified growth in the 2nd streak, 4 signified growth in the 3rd streak, and 5 signified growth of E. coli in the final streak). The condition of faeces was noted as normal, wet or diarrhoea, as an indication of clinical signs.
At the conclusion of the experiment on day 7, pigs were euthanased and swabs were taken from different areas in the gastro-intestinal tract, including the small intestine (25%, 50% and 75% along the length of the small intestine), the caecum and colon, and from the faeces in situ. These post-mortem swabs were cultured on sheep blood agar to quantify E. coli load as described above.

[2] = system: Actinobacillus pleuropneumoniae (App); assay: App challenge of pigs, prophylactic recombinant IL-1ra, plasmid IL-1ra or flunix (Example 5); settings: day 13 after challenge compared with pre-challenge levels; FIG. 35
[3] = system: Actinobacillus pleuropneumoniae (App); assay: as above; design: improvements in weight gain over saline controls / reduction in weight gain compared to saline controls / reduction in clinical symptoms compared to saline / reduction of pleurisy compared to saline treated controls / reduction in affected lung mass compared to saline treated controls: concentration or dose not given beside the values
Experimental: Male pigs, with a mean starting weight of 52 kg, were allocated to 5 treatment groups as outlined in Table 6. Pigs were housed in group pens, with each pen containing a replicate from each of the treatment groups. The starting weights of each treatment group and each pen were equal prior to the start of the trial. Pigs were provided with pelleted feed and water ad libitum.
Recombinant IL-1ra and saline-were administered as 1 ml doses, given subcutaneously behind the ear. Plasmids were administered in 1 ml doses, given intramuscularly in the hind-leg. Flunix was administered as a 2 ml dose according to the manufacturer's instructions, and delivered intramuscularly in the neck. The timetable of administration is outlined in Table 6 below.
Prior to challenge, pigs were treated with recombinant cytokines, flunix or plasmids as described Table 7. Pigs were anaesthetised and infected intratracheally with 7.5×10^5 pfu App on day 0.
Blood was sampled from pigs by venipuncture at 0, 24 h and 14 days post-challenge. Blood was assayed for immunological parameters as previously described. Pigs were weighed weekly from delivery of plasmids and for 2 weeks after challenge.
At the conclusion of the trial, pigs were euthanased and the lungs removed for post-mortem examination. Lungs were scored for pleurisy from 0-5 (FIGS. 39 and 40) and the degree of pleuropneumonia was determined by weighing affected lung and expressed as a percentage of total lung weight (FIGS. 41 and 42). Pigs treated with flunix and IL-1ra had less pleurisy than the saline controls (FIG. 39).

B1: IL-1ra: Recombinant porcine IL-1ra expressed in E. coli and purified using a polyhis tag system (protein, UniProt Q29056 26-177, looked up)
Interleukin-1 receptor …: HPLGKRPCRMQAFRIWDVNQKTFYLRNNQLVAGYLQGPNTKLEEKIDVVPVEPHFVFLGIHGGKLCLSCVKSGDEMKLQLDAVNITDLRKNSEQDKRFTFIRSDSGPTTSFESAACPGWFLCTALEADQPVGLTNTPKAAVKVTKFYFQQDQ
modifications: polyhistidine tag
notes: Recombinant porcine IL-1ra expressed in E. coli and purified using a polyhis tag system
feed consumed ([1]; IL-1ra at high dose (10 μg per kg)): 1.8 kg of feed per day | weight gained in the second week of challenge ([1]; IL-1ra at low dose (2 μg per kg), Excenel per manufacturer's instructions, FIG. 51): 5.7 kg | feed consumed ([1]; IL-1ra at low dose (2 μg per kg), Excenel per manufacturer's instructions): 1.7 kg of feed per day | production of IL-8 in the caudal-mediastinal lymph nodes ([1]; low dose IL-1ra, Excenel, compared to saline treated controls): reduced the production of IL-8 | feed conversion ratio (FCR, feed:gain) ([1]; low dose IL-1ra, FIG. 53): 1.6 | proliferative responses of lymphocytes in the presence of killed App ([1]; low dose IL-1ra, FIG. 54): tended to have improved proliferative responses of lymphocytes | production of the pro-inflammatory cytokine IL-8 in lung tissue (mRNA at post-mortem) ([1]; low doses, compared to other treatments, FIG. 55): reduced the production | decrease in faecal shedding, faecal scores tallied over the entire challenge period, compared to saline treated controls (haemorrhagic E. coli; 5 days after E. coli challenge, FIG. 15): 37% | recorded cases of wet faeces and diarrhoea (clinical signs) (haemorrhagic E. coli; 5 days after E. coli challenge, FIG. 16): fewer recorded cases of wet faeces and diarrhoea | group mean total E. coli culture score, all gut areas at post-mortem (haemorrhagic E. coli; FIG. 20): less than 10 out of a possible 30 | reduction of E. coli culture score at post-mortem compared to saline (haemorrhagic E. coli; anterior part of the small intestine): 71% | reduction of E. coli culture score at post-mortem compared to saline (haemorrhagic E. coli; caecum): 39% | reduction of E. coli culture score at post-mortem compared to saline (haemorrhagic E. coli; colon): 44% | reduction in clinical signs compared to saline controls (haemorrhagic E. coli; faecal condition, FIG. 17): 64% | days on which bacterial shedding was significantly less than saline treated controls (haemorrhagic E. coli; faecal cultures): 3/5 | reduction of E. coli culture score at post-mortem compared to saline (haemorrhagic E. coli; faeces in situ): 23% | reduction of E. coli culture score at post-mortem compared to saline (haemorrhagic E. coli; mid small intestine): 51% | reduction in E. coli in the hindgut area (caecum and colon) compared to saline controls (haemorrhagic E. coli; post-mortem, FIG. 23): 42% | reduction of bacterial load in the small intestine (foregut) compared with saline controls (haemorrhagic E. coli; post-mortem, FIG. 23): 55% | reduction of E. coli culture score at post-mortem compared to saline (haemorrhagic E. coli; posterior small intestine): 47% | reduction in the amount of E. coli in the gastro-intestinal tract compared to saline controls (haemorrhagic E. coli; total culture scores at post-mortem, FIG. 21): 45% | period of reduced bacterial shedding in faeces after challenge (haemorrhagic E. coli; vs saline, FIG. 14): day 2 through to day 4 | Change compared to saline treated controls: Change in clinical signs (haemorrhagic E. coli; ↓ (decrease)): 63.6% | Change compared to saline treated controls: Change on faecal bacterial load (haemorrhagic E. coli; ↓ (decrease)): 36.5% | Change compared to saline treated controls: E. coli at post-mortem (haemorrhagic E. coli; ↓ (decrease)): 44.6% | Change compared to saline treated controls: E. coli in foregut (haemorrhagic E. coli; ↓ (decrease)): 55.4% | Change compared to saline treated controls: E. coli in hindgut (haemorrhagic E. coli; ↓ (decrease)): 41.7% | Change compared to saline treated controls: Presence of bacterial shedding in faeces (haemorrhagic E. coli; ↓ (decrease)): 3 days | levels of TNFα protein in the serum [2]: reduced levels of TNFα | improvements in weight gain over saline controls ([3]; 14d App challenge, FIG. 33): 53.8% | daily rate of gain ([3]; 14d challenge with App, FIG. 32): 667 g per day | reduction in clinical symptoms compared to saline ([3]; FIG. 38): 72% | heavier at the termination of the experiment than saline treated peers ([3]; after 2 weeks of challenge): 4 kg | improvement in growth vs saline ([3]; after 2 weeks of challenge): 69% | production of IL-6 (mRNA in peripheral blood) ([3]; after App challenge, compared with saline treated controls, FIG. 36): reduce the production | growth during the week of challenge ([3]; first week after App challenge, FIG. 30): positive growth | clinical signs of App disease (mean clinical scores over 30 visits) ([3]; first week of challenge, vs saline-treated controls, p<0.05, FIG. 37): significantly reduced clinical signs of disease | reduction in affected lung mass compared to saline treated controls ([3]; percentage of lung affected by App lesions, FIG. 42): 73.9% | reduction of pleurisy compared to saline treated controls ([3]; pleurisy score 0-5 at necropsy, FIG. 40): 22%

Source: US20060122105A1, “Method of improing the growth performance of an animal” (priority 2001, published 2006)
